This assay addresses prefusion F hybrid: RSV F (S155C/S290C plus A102C/I148C) with transmembrane domain and cytoplasmic tail of hMPV F, on VLPs (human respiratory syncytial virus; human metapneumovirus) (UniProt P12568). Nature of the assay: dot blot of VLPs, 5C4 signal normalized over Palivizumab, 3 independent experiments.

Regarding “5C4, a mouse monoclonal antibody (mAb) specific for the prefusion-only antigen site Φ”, the fold recognition relative to postfusion F was 19.2 fold.
